Test results reported in publication PMC6356355.

Biological target: Toll-like receptor 9 (rat (endogenous in AR4-2J))

Recombinant histone H4 (from UniProt P62805 1-103) (natural protein)
blockade of H4 (5 mgL^-1)-induced calcium oscillations in AR4-2J cells by simultaneous perfusion of TLR9 antagonist ODN2088 (5 uM): 88%
